Measurements taken from article PMC11252000, “MFSD1 with its accessory subunit GLMP functions as a general dipeptide uniporter in lysosomes” (Nature Cell Biology, 2024).
Changes are numbered by the printed parent chain. Each block holds one molecule with its values, some of them ahead of it. Where a SMILES comes first, the peptide text is derived from it.

Columns and labels:
[1] = target: MFSD1-strep (mouse major facilitator superfamily domain containing 1 protein with N-terminal Twin-Strep-tag) (mouse) (UniProt Q9DC37); assay: nanoDSF thermal shift; protein 0.2 mg/ml in 100 mM HEPES pH 7.5, 150 mM NaCl, 0.03% DDM, 0.003% CHS; 5 mM ligand, 30 min at room temperature; 20 to 95 °C at 1 °C/min (Prometheus NT.48)
[2] = target: T1, MFSD1 (MFSD1WT, mmMFSD1, MFSD1-strep) (Mus musculus, UniProt Q9DC37); assay: nanoDSF thermal shift titration; type: binding
T1 construct: full length; N-terminal Twin-Strep-tag + HRV 3C site; Expi293F; purified in DDM/CHS; liposomes POPE:POPG:CHS for transport
T1 sequence (Q9DC37 1-464): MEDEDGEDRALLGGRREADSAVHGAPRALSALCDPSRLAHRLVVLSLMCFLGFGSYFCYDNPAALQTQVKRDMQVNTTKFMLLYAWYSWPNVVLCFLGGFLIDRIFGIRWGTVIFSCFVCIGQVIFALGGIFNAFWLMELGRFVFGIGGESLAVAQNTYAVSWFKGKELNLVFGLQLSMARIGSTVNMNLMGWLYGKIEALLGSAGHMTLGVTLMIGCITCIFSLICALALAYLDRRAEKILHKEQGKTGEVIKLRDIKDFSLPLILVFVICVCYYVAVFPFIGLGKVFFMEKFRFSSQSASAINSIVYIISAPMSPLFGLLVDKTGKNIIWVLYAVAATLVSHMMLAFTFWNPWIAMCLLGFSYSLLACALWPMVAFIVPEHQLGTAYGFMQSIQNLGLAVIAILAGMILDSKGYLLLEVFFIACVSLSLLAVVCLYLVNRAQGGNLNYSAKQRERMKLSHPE

[3] = target: T2, MFSD1–GLMP oocytes (MFSD1L11A/L12A-EmGFP + GLMPY400A-mKate2) (Mus musculus, UniProt Q9DC37, L11A/L12A); assay: TEVC competition with Lys–Ala current in oocytes; type: cell-based
T2 construct: heterodimer at plasma membrane of Xenopus laevis oocytes; lysosomal sorting mutants; EmGFP and mKate2 fusions; with Glycosylated lysosomal membrane protein
T2 sequence (Q9DC37 1-464 L11A/L12A): T1 sequence (Q9DC37 1-464) with L11A, L12A
T2 sequence (Q9JHJ3 36-404 Y400A partner): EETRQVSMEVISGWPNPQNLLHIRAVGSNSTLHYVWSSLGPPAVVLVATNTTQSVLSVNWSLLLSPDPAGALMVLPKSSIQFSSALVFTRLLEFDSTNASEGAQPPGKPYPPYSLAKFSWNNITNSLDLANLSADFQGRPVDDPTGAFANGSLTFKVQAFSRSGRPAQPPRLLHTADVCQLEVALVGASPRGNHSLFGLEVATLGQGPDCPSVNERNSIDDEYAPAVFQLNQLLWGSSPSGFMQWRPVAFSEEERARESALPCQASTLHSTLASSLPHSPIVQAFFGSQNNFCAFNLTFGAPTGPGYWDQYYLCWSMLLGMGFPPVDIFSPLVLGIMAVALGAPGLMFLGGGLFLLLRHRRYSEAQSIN

Ala-His = assay: nanoDSF thermal stability assay; conditions: 5 mM peptide, n = 3, apo Tm of WT est. 40 °C, parent: est. 40, read off a plot
Ala–Ala dipeptide = assay: nanoDSF thermal stability assay; conditions: 5 mM peptide, n = 3, apo Tm of WT est. 40 °C, parent: est. 41, read off a plot
Anserine = assay: nanoDSF thermal stability assay; conditions: 5 mM peptide, n = 3, apo Tm of WT est. 40 °C, parent: est. 40, read off a plot
Arg–Pro dipeptide = assay: nanoDSF thermal stability assay; conditions: 5 mM peptide, n = 3, apo Tm of WT est. 40 °C, parent: est. 42, read off a plot
His-Ser dipeptide = assay: nanoDSF thermal stability assay; conditions: 5 mM peptide, n = 3, apo Tm of WT est. 40 °C, parent: est. 40, read off a plot
His–Ala dipeptide = assay: nanoDSF thermal stability assay; conditions: 5 mM peptide, n = 3, apo Tm of WT est. 40 °C, parent: est. 41, read off a plot
Leu–Ala dipeptide = assay: nanoDSF thermal stability assay; conditions: 5 mM peptide, n = 3, apo Tm of WT est. 40 °C, parent: est. 47, read off a plot
Lys–Val dipeptide = assay: nanoDSF thermal stability assay; conditions: 5 mM peptide, n = 3, apo Tm of WT est. 40 °C, parent: est. 46, read off a plot
Pro–Arg dipeptide = assay: nanoDSF thermal stability assay; conditions: 5 mM peptide, n = 3, apo Tm of WT est. 40 °C, parent: est. 49, read off a plot
[4] = target: GLMP + MFSD1 co-complex (co-expressed MFSD1-strep and GLMP-Ct-His-GFP, purified) (mouse) (UniProt Q9DC37)
[5] = apo Tm of this mutant est. 42 °C
[6] = apo Tm of this mutant est. 37 °C
[7] = apo Tm of this mutant est. 39 °C
[8] = apo Tm of this mutant est. 47 °C
[9] = apo Tm of this mutant est. 36 °C

MFSD1-strep (mouse major facilitator superfamily domain containing 1 protein with N-terminal Twin-Strep-tag) (from UniProt Q9DC37) Y56A, sequence (Q9DC37 whole entry Y56A, looked up, the tested form may be a part): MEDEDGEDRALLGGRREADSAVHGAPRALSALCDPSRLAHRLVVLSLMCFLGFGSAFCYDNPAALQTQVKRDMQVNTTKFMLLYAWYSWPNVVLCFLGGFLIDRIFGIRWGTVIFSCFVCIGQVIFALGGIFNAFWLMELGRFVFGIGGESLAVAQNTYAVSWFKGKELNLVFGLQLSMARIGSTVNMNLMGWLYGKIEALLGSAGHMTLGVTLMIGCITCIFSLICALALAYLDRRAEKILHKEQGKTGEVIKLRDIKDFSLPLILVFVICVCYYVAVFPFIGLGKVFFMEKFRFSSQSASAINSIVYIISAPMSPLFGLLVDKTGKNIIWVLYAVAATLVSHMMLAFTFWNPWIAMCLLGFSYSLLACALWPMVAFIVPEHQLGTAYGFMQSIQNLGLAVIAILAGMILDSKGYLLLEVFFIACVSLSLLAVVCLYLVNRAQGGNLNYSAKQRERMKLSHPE
MFSD1-strep (mouse major facilitator superfamily domain containing 1 protein with N-terminal Twin-Strep-tag) (from UniProt Q9DC37) Q176K, sequence (Q9DC37 whole entry Q176K, looked up, the tested form may be a part): as the sequence (Q9DC37 whole entry Y56A, looked up, the tested form may be a part) above, with A56Y, Q176K counted along it
MFSD1-strep (mouse major facilitator superfamily domain containing 1 protein with N-terminal Twin-Strep-tag) (from UniProt Q9DC37) W373A, sequence (Q9DC37 whole entry W373A, looked up, the tested form may be a part): as the sequence (Q9DC37 whole entry Y56A, looked up, the tested form may be a part) above, with A56Y, W373A counted along it
MFSD1-strep (mouse major facilitator superfamily domain containing 1 protein with N-terminal Twin-Strep-tag) (from UniProt Q9DC37) Q176A, sequence (Q9DC37 whole entry Q176A, looked up, the tested form may be a part): as the sequence (Q9DC37 whole entry Y56A, looked up, the tested form may be a part) above, with A56Y, Q176A counted along it
MFSD1-strep (mouse major facilitator superfamily domain containing 1 protein with N-terminal Twin-Strep-tag) (from UniProt Q9DC37) Q176E, sequence (Q9DC37 whole entry Q176E, looked up, the tested form may be a part): as the sequence (Q9DC37 whole entry Y56A, looked up, the tested form may be a part) above, with A56Y, Q176E counted along it

Molecule: NCCCC[C@H](NC(=O)[C@@H](N)Cc1c[nH]cn1)C(=O)O [His–Lys] (H-His-Lys-OH)
Kd [2]: 765 ± 136 µM

Molecule: MFSD1-strep (mouse major facilitator superfamily domain containing 1 protein with N-terminal Twin-Strep-tag) (from UniProt Q9DC37) Q176E
other: Tm (Ala-His; [6]): 40 °C
other: Tm (Ala–Ala dipeptide; [6]): 42 °C
other: Tm (Anserine; [6]): 40 °C
other: Tm (Arg–Pro dipeptide; [6]): 48 °C
other: Tm (His-Ser dipeptide; [6]): 40 °C
other: Tm (His–Ala dipeptide; [6]): 44 °C
other: Tm (Leu–Ala dipeptide; [6]): 52 °C
other: Tm (Lys–Val dipeptide; [6]): 49 °C
other: Tm (Pro–Arg dipeptide; [6]): 51 °C

Molecule: CC(C)[C@H](NC(=O)[C@@H](N)CCCCN)C(=O)O [Lys–Val] (H-Lys-Val-OH)
Kd [2]: 4300 ± 600 µM

Molecule: Leu–Leu dipeptide
ΔTm at 5 mM ligand [1]: 14 °C

Molecule: MFSD1-strep (mouse major facilitator superfamily domain containing 1 protein with N-terminal Twin-Strep-tag) (from UniProt Q9DC37) Y56A
other: Tm (Ala-His; [7]): 42 °C
other: Tm (Ala–Ala dipeptide; [7]): 41 °C
other: Tm (Anserine; [7]): 42 °C
other: Tm (Arg–Pro dipeptide; [7]): 42 °C
other: Tm (His-Ser dipeptide; [7]): 42 °C
other: Tm (His–Ala dipeptide; [7]): 42 °C
other: Tm (Leu–Ala dipeptide; [7]): 45 °C
other: Tm (Lys–Val dipeptide; [7]): 45 °C
other: Tm (Pro–Arg dipeptide; [7]): 44 °C

Molecule: MFSD1-strep (mouse major facilitator superfamily domain containing 1 protein with N-terminal Twin-Strep-tag) (from UniProt Q9DC37) W373A
other: Tm (Ala-His; [8]): 47 °C
other: Tm (Ala–Ala dipeptide; [8]): 47 °C
other: Tm (Anserine; [8]): 47 °C
other: Tm (Arg–Pro dipeptide; [8]): 46 °C
other: Tm (His-Ser dipeptide; [8]): 47 °C
other: Tm (His–Ala dipeptide; [8]): 47 °C
other: Tm (Leu–Ala dipeptide; [8]): 47 °C
other: Tm (Lys–Val dipeptide; [8]): 47 °C
other: Tm (Pro–Arg dipeptide; [8]): 47 °C

Molecule: His–Lys dipeptide
ΔTm at 5 mM ligand [1]: 12 °C

Molecule: Glu–Ser dipeptide
inhibition of the current evoked by 3 mM Lys–Ala in MFSD1–GLMP oocytes (TEVC, pH 5.0) by 10 mM Glu–Ser applied simultaneously [4]: 26%

Molecule: N=C(N)NCCC[C@H](NC(=O)[C@@H]1CCCN1)C(=O)O [Pro–Arg] (H-Pro-Arg-OH)
Kd [2]: 318 ± 66.7 µM

Molecule: N[C@@H](CCC(=O)O)C(=O)N[C@@H](CO)C(=O)O [Glu–Ser] (H-Glu-Ser-OH)
inhibition at 10000 µM ([3]; read-out: % inhibition at 10 mM): 26 ± 3%

The next lines start with the values.

ΔTm at 5 mM ligand [1]: 12.1 °C
Molecule: Pro–Arg dipeptide

inhibition at 20000 µM ([3]; read-out: % inhibition at 20 mM): 66 ± 3%
Molecule: C[C@H](N)C(=O)N[C@@H](C)C(=O)O [Ala–Ala] (H-Ala-Ala-OH)

other: Tm (Ala-His; [5]): 43 °C
other: Tm (Ala–Ala dipeptide; [5]): 46 °C
other: Tm (Anserine; [5]): 43 °C
other: Tm (Arg–Pro dipeptide; [5]): 42 °C
other: Tm (His-Ser dipeptide; [5]): 45 °C
other: Tm (His–Ala dipeptide; [5]): 49 °C
other: Tm (Leu–Ala dipeptide; [5]): 53 °C
other: Tm (Lys–Val dipeptide; [5]): 43 °C
other: Tm (Pro–Arg dipeptide; [5]): 42 °C
Molecule: MFSD1-strep (mouse major facilitator superfamily domain containing 1 protein with N-terminal Twin-Strep-tag) (from UniProt Q9DC37) Q176K

KM of the Lys–Ala-evoked inward current in MFSD1–GLMP oocytes (TEVC, −40 mV, pH 5.0) [4]: 2.6 mM
Molecule: Lys–Ala dipeptide

Kd [2]: 2200 ± 420 µM
Molecule: CC(C)C[C@H](N)C(=O)N[C@@H](C)C(=O)O [Leu–Ala] (H-Leu-Ala-OH)

other: Tm (Ala-His; [9]): 36 °C
other: Tm (Ala–Ala dipeptide; [9]): 40 °C
other: Tm (Anserine; [9]): 36 °C
other: Tm (Arg–Pro dipeptide; [9]): 48 °C
other: Tm (His-Ser dipeptide; [9]): 37 °C
other: Tm (His–Ala dipeptide; [9]): 42 °C
other: Tm (Leu–Ala dipeptide; [9]): 48 °C
other: Tm (Lys–Val dipeptide; [9]): 49 °C
other: Tm (Pro–Arg dipeptide; [9]): 59 °C
Molecule: MFSD1-strep (mouse major facilitator superfamily domain containing 1 protein with N-terminal Twin-Strep-tag) (from UniProt Q9DC37) Q176A
